{"source": "patent US20200317756A1", "about": "(CERTEST BIOTEC S L, published 2020)", "key": {"[1]": {"target": "T1, DNA-Binding Protein from Starved Cells (Dps) of Campylobacter jejuni (Campylobacter jejuni, UniProt Q0P891 1-149)", "T1 construct": "also called Dps of C. jejuni", "experiment": "sandwich immunochromatographic strip, immobilized CL30Camp and labeled CL30Camp, Dps at 1.85 ng/mL, read by eye after 10 min"}, "[2]": {"target": "T2, DNA-Binding Protein from Starved Cells (Dps) of Campylobacter coli (Campylobacter coli)", "T2 construct": "also called Dps of C. coli", "experiment": "sandwich immunochromatographic strip, immobilized CL30Camp and labeled CL30Camp, Dps at 0.75 ng/mL, read by eye after 10 min (+/- = weak positive response)"}}}
{"binder": "CL30Camp monoclonal antibody (antibody, V domains shown, also called CL30Camp/CL30Camp (immobilized/labeled pair in the test device)) VH: QVQLKQSGPGLVQPSQSLSITCTVSGFSLTSSGVHWVRQSPGKGLEWLGVIWRGGSTDYNAAFMSRLSITKDNSKSQVFFKMNSLQPDDTAIYYCAKNYYYGTSPDYFDYWGQGTTLTVSS VL: not shown", "values": [{"measurement": "binding result", "setting": "[1]", "value": "binds"}, {"measurement": "binding result", "setting": "[2]", "value": "binds"}]}
